Data reported in PMC9881579.

B1: LHD206B (designed binder)
chain: GRQEKVLKSIEETVRKMGVTMETHRSGNEVKVVIKGLHKSQQEQLLKDVLKTANKQGVNVHISFRGDTVTIRVRE
modifications: not checked
B2: LHD206B, split luciferase construct (designed binder)
chain: B1 chain
modifications: here or on the partner: Strep-tag, sfGFP, GS-linker and split luciferase fragment left out; protomer taken from the unfused monovalent entry / Strep-tag, sfGFP, GS-linker and split luciferase fragment left out; protomer take

Experiments:
LHD206A [1] = experiment: BLI; biotinylated protomer on streptavidin biosensors, designed partner in solution; 25 °C; 10 mM HEPES pH 7.4, 150 mM NaCl, 3 mM EDTA, 0.05% Surfactant P20, 1 mg/ml BSA; steady-state fit, 1:1 model
LHD206A [2] = experiment: BLI; biotinylated protomer on streptavidin biosensors, designed partner in solution; 25 °C; 10 mM HEPES pH 7.4, 150 mM NaCl, 3 mM EDTA, 0.05% Surfactant P20, 1 mg/ml BSA; global kinetic fit, 1:1 model
[3] = target: LHD206A, split luciferase construct; experiment: split reporter (BiFC, NanoBiT); smBiT:lgBiT equilibrium binding in E. coli lysate; one component at 1 nM, the other titrated; overnight at room temperature; 20 mM sodium phosphate, 100 mM NaCl, pH 7.4, 0.05% Tween 20

Row | Binder | Kd (LHD206A [1]) [nM] | Kd (LHD206A [2]) [nM] | koff (LHD206A [2]) [s⁻¹] | kon (LHD206A [2]) [M⁻¹ s⁻¹] | Kd [3] [nM]
1 | B1 | 8.4 | 2.8 | 0.00075 | 270000 | –
2 | B2 | – | – | – | – | 11
